Measured values from the supplement of paper PMC10065799, “High-throughput profiling of sequence recognition by tyrosine kinases and SH2 domains using bacterial peptide display” (eLife, 2023).

Tests used:
FGFR3 = FGFR3 (UniProt P22607); experiment: phosphorylation enrichment, bacterial display (enrichment ratio); higher = better substrate or ligand; peptides without Tyr show the background
c-Abl (mouse) = experiment: as above
Jak2 = Jak2 (UniProt O60674); experiment: as above
Fyn = Fyn (UniProt P06241); experiment: as above
AncSZ = experiment: as above
EPHB2 = EPHB2 (UniProt P29323); experiment: as above
EPHB1 = EPHB1 (UniProt P54762); experiment: as above
MERTK = MERTK (UniProt Q12866); experiment: as above
Hck = Hck (UniProt P08631); experiment: as above
Fes = Fes (UniProt P07332); experiment: as above
Fer (mouse) = experiment: as above
c-Src = experiment: as above
FGFR1 = FGFR1 (UniProt P11362); experiment: as above
SHP2-C SH2 = experiment: SH2 binding enrichment of the phosphorylated peptide, bacterial display (enrichment ratio); higher = better substrate or ligand; peptides without Tyr show the background
c-Src SH2 = experiment: as above
Grb2 SH2 = Grb2 SH2 (UniProt P62993); experiment: as above
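For SH2 binding enrichment of the phosphorylated peptide, bacterial display in this document: peptide library displayed on the E. coli surface as eCPX fusions, selected cells deep-sequenced, score is each peptide's frequency after selection divided by its frequency in the input.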
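For phosphorylation enrichment, bacterial display in this document: 11-residue human phosphosite peptides and single-mutation variants displayed on the E. coli surface, counted by deep sequencing, each peptide's frequency after selection divided by its frequency in the unselected input library; frequency after pTyr selection over input frequency; kinase dosed for 20-30% of maximal phosphorylation in three min.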

Sequence of MERTK (Q12866 whole entry, looked up): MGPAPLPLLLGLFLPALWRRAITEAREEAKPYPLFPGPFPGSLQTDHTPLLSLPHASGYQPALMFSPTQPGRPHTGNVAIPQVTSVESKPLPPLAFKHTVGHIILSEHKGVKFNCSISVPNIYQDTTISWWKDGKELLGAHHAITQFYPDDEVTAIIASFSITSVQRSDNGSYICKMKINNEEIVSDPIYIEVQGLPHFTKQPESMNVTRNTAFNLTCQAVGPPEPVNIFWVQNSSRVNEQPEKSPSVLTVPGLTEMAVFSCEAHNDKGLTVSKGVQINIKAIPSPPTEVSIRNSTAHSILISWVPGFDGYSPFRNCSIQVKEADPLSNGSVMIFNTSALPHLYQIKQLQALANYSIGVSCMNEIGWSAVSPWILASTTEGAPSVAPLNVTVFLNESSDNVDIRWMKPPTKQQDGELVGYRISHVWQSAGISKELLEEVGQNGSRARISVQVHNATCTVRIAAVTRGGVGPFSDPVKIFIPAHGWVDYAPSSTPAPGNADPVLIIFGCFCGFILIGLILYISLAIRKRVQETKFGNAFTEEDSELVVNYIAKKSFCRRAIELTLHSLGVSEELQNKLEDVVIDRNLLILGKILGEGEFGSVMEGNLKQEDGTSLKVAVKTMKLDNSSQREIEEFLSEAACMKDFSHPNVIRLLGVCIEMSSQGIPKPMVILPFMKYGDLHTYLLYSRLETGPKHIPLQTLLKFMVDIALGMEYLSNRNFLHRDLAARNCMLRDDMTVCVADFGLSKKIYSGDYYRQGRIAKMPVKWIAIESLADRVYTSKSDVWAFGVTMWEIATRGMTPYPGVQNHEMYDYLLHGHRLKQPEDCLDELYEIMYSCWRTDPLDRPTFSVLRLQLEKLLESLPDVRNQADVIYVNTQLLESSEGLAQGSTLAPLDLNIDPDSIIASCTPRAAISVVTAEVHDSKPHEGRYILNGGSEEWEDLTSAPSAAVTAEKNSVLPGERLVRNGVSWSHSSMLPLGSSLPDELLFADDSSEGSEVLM
Sequence of FGFR3 (P22607 whole entry, looked up): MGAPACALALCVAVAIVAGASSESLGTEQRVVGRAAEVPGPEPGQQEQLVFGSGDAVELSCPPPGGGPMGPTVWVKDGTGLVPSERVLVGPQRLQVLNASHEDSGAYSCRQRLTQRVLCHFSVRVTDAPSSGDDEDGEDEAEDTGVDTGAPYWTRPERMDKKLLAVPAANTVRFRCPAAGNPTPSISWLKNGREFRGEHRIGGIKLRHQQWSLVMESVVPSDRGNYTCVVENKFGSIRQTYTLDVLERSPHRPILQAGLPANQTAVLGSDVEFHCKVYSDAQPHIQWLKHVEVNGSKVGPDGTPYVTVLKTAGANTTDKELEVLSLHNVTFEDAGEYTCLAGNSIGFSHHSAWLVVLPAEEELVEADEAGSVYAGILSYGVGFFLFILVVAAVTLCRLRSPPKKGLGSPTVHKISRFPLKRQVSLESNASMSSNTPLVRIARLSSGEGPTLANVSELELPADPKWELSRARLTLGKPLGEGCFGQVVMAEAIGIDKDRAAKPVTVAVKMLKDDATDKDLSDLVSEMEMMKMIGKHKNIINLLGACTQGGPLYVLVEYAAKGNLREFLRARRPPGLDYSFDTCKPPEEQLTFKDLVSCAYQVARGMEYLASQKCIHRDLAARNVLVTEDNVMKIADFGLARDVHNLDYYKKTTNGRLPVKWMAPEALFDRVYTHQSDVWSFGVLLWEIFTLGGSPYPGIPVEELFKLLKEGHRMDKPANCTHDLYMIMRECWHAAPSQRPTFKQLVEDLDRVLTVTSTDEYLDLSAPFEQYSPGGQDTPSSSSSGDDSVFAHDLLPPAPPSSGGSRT
Sequence of EPHB1 (P54762 whole entry, looked up): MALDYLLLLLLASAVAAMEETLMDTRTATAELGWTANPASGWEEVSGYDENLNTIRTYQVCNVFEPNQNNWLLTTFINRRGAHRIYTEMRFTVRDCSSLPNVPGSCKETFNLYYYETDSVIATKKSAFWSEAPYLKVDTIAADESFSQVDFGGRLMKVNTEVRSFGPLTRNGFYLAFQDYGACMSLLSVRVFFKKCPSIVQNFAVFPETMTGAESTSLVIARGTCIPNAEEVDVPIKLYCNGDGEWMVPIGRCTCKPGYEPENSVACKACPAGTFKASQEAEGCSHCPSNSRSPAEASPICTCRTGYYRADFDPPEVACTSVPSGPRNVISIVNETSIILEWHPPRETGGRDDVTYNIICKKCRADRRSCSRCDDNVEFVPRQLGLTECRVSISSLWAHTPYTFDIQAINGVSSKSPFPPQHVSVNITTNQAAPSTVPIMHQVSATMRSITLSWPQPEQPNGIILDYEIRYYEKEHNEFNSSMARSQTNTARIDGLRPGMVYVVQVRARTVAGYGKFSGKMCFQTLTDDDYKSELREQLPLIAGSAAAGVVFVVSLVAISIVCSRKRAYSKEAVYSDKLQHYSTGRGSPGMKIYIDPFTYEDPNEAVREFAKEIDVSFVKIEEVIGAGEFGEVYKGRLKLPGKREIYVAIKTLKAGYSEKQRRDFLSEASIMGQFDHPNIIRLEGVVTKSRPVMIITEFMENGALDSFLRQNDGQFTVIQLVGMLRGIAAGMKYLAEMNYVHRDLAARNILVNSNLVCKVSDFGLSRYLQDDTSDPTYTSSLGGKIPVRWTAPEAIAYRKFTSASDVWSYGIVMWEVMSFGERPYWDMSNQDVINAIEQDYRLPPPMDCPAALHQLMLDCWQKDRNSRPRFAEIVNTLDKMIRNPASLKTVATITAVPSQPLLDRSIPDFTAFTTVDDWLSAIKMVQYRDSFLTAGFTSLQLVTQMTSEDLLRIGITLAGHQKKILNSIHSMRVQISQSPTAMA
Sequence of EPHB2 (P29323 whole entry, looked up): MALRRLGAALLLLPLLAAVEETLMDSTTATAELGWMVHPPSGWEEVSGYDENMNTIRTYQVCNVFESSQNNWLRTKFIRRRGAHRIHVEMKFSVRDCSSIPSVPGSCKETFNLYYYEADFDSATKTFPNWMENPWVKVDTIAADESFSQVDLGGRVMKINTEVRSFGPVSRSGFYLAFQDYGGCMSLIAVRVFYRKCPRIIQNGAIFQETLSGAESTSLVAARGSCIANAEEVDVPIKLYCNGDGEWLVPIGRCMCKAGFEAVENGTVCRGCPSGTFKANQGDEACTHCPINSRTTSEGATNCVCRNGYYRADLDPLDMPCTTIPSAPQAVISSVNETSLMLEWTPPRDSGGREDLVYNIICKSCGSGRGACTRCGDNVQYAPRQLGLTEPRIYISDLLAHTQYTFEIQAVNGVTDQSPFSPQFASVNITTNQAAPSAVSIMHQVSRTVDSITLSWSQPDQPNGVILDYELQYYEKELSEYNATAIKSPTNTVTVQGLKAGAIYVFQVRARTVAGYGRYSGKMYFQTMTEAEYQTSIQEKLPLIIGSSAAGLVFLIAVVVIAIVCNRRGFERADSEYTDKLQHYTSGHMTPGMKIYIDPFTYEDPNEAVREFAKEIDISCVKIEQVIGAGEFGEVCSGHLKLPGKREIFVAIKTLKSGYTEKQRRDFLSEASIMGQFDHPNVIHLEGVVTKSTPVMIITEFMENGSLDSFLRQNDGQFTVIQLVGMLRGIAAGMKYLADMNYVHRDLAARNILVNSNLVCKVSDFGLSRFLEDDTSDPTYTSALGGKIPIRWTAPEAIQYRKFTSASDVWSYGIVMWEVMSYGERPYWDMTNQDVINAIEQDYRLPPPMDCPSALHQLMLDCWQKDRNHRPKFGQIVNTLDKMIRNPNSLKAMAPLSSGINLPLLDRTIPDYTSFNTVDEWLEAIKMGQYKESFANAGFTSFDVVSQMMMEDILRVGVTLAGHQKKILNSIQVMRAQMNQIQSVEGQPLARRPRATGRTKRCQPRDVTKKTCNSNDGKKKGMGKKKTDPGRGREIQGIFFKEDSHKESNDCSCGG
Sequence of Fes (P07332 whole entry, looked up): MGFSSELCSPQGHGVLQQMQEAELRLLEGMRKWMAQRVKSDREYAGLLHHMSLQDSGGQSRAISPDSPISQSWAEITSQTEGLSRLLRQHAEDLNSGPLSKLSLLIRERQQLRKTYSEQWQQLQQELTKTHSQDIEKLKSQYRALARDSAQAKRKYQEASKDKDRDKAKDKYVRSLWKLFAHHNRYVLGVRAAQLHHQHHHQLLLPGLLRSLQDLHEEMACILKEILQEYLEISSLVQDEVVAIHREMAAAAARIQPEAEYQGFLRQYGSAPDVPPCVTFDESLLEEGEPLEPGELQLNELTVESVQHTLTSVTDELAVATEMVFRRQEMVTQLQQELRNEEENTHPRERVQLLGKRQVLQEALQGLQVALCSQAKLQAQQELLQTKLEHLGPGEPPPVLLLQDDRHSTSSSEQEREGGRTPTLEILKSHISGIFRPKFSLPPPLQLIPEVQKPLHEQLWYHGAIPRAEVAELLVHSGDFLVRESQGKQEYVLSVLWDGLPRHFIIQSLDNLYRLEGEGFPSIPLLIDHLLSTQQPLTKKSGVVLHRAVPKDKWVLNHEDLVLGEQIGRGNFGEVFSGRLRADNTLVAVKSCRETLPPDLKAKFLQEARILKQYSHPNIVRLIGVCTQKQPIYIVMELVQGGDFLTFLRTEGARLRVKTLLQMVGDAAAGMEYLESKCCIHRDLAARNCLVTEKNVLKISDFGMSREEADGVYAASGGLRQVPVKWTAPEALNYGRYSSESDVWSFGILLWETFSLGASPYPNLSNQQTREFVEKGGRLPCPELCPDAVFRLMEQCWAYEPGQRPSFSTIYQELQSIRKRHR
Sequence of Grb2 SH2 (P62993 whole entry, looked up, the tested form may be a part): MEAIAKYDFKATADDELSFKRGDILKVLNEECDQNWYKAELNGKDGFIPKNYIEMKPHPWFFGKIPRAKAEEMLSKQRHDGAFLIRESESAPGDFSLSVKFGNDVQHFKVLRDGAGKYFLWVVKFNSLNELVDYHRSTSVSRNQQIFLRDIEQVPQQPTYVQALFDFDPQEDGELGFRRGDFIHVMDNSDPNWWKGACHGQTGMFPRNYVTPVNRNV

With LRAGVYHEKDQ [DNM2_Y626_P627H] the phosphorylation enrichment (FGFR3) was 0.763, the phosphorylation enrichment (c-Abl (mouse)) was 0.877 and the phosphorylation enrichment (Jak2) was 1.08. The phosphorylation enrichment (Fyn) was 0.608, the phosphorylation enrichment (AncSZ) was 0.735 and the phosphorylation enrichment (EPHB2) was 0.451. It also gave a phosphorylation enrichment (EPHB1) of 0.629, a phosphorylation enrichment (MERTK) of 0.491 and a phosphorylation enrichment (Hck) of 0.605. The phosphorylation enrichment (Fes) was 1.29, the phosphorylation enrichment (Fer (mouse)) was 0.509 and the phosphorylation enrichment (c-Src) was 0.617. For the same sequence, the phosphorylation enrichment (FGFR1) was 0.635, the SH2 binding enrichment (SHP2-C SH2) was 0.657 and the SH2 binding enrichment (c-Src SH2) was 0.445. For the same sequence, the SH2 binding enrichment (Grb2 SH2) was 0.92.

ILDEAYVMASM [EGFR_Y764_V769M] gave a phosphorylation enrichment (FGFR3) of 0.62, a phosphorylation enrichment (c-Abl (mouse)) of 0.746 and a phosphorylation enrichment (Jak2) of 0.965. It also gave a phosphorylation enrichment (Fyn) of 0.539, a phosphorylation enrichment (AncSZ) of 1.22 and a phosphorylation enrichment (EPHB2) of 0.553. The phosphorylation enrichment (EPHB1) was 0.461, the phosphorylation enrichment (MERTK) was 0.447 and the phosphorylation enrichment (Hck) was 0.528. The phosphorylation enrichment (Fes) was 1.19, the phosphorylation enrichment (Fer (mouse)) was 0.557 and the phosphorylation enrichment (c-Src) was 0.643. It also gave a phosphorylation enrichment (FGFR1) of 0.525, an SH2 binding enrichment (SHP2-C SH2) of 0.633 and an SH2 binding enrichment (c-Src SH2) of 0.424. For the same sequence, the SH2 binding enrichment (Grb2 SH2) was 0.66.

Sequence CQLENYCNGGG [INS_Y108_Y103C] has a phosphorylation enrichment (FGFR3) of 0.664, a phosphorylation enrichment (c-Abl (mouse)) of 0.621 and a phosphorylation enrichment (Jak2) of 0.837. For the same sequence, the phosphorylation enrichment (Fyn) was 0.54, the phosphorylation enrichment (AncSZ) was 0.925 and the phosphorylation enrichment (EPHB2) was 0.696. It also gave a phosphorylation enrichment (EPHB1) of 0.681, a phosphorylation enrichment (MERTK) of 0.503 and a phosphorylation enrichment (Hck) of 0.57. It also gave a phosphorylation enrichment (Fes) of 0.89, a phosphorylation enrichment (Fer (mouse)) of 0.49 and a phosphorylation enrichment (c-Src) of 0.494. For the same sequence, the phosphorylation enrichment (FGFR1) was 0.573, the SH2 binding enrichment (SHP2-C SH2) was 0.888 and the SH2 binding enrichment (c-Src SH2) was 1.17. It also gave an SH2 binding enrichment (Grb2 SH2) of 1.29.

For SILAVYSKDIY [PANK2_Y400_N404I], the phosphorylation enrichment (FGFR3) was 0.713, the phosphorylation enrichment (c-Abl (mouse)) was 0.537 and the phosphorylation enrichment (Jak2) was 1.04. For the same sequence, the phosphorylation enrichment (Fyn) was 2.43, the phosphorylation enrichment (AncSZ) was 1.07 and the phosphorylation enrichment (EPHB2) was 0.788. The phosphorylation enrichment (EPHB1) was 0.745, the phosphorylation enrichment (MERTK) was 2.91 and the phosphorylation enrichment (Hck) was 2.48. It also gave a phosphorylation enrichment (Fes) of 0.924, a phosphorylation enrichment (Fer (mouse)) of 0.45 and a phosphorylation enrichment (c-Src) of 2.84. For the same sequence, the phosphorylation enrichment (FGFR1) was 0.518, the SH2 binding enrichment (SHP2-C SH2) was 0.903 and the SH2 binding enrichment (c-Src SH2) was 0.726. It also gave an SH2 binding enrichment (Grb2 SH2) of 0.897.
